Results taken from publication doi:10.1101/2024.04.29.591597 (bioRxiv, 2024).
One block for each binder: values may come before it.

How the values were obtained:
[1] = target: native OspC type K (OspCK) on live B. burgdorferi strain 297 (B. burgdorferi (endogenous in strain 297)); assay: flow cytometry on cells
[2] = target: OspC type B (OspCB) used in BLI (Borreliella burgdorferi, OspC type B …, UniProt Q44977); assay: BLI
crystal structure = target: the molecule itself; assay: crystal structure

MFI [1]: < 35 | binding result [2]: no binding
B1: human monoclonal antibody B11 IgG1 (antibody, V domains shown)
VH: QLQLQESGPGLVKPSQTLSLTCTLSGGSISSTSYYWGWIRQPPGSGLEWIGSMYHSGNTYYKSSLKGRVTISLDTSRTQFSLRLTSVTAADTAVYYCARLGDVFNSAMDVWGQGTTVIVSS
VL: EIVMTQSPVTLSVSPGERATLSCRASQSVGNNLAWYQHKPGQAPRLLIYDASTRATGIPGRFSGSGSGTEFTLTISSLQSEDFAVYYCQEYNNWPRYTFGQGAKLEIR

B2: Recombinant Outer surface protein C type A (OspCA), residues 38 to 201, homodimer (domain or fragment, B. burgdorferi B31, UniProt Q07337 38-201, looked up)
chain: KGPNLTEISKKITDSNAVLLAVKEVEALLSSIDEIAAKAIGKKIHQNNGLDTENNHNGSLLAGAYAISTLIKQKLDGLKNEGLKEKIDAAKKCSETFTNKLKEKHTDLGKEGVTDADAKEAILKTNGTKTKGAEELGKLFESVEVLSKAAKEMLANSVKELTSP
stoichiometry N (crystal structure): 2
